This note sets out measurements from PMC4838190 (Molecular cell, 2015).

The experiment concerns the target cSH2 domain of PLCγ (isolated, solution experiments). Kind of experiment: NMR titration.

B1: activated FGFR2 kinase, mono-phosphorylated on Tyr-769 (FGFR2K^pY769) (domain or fragment)
chain: MGSSHHHHHHSQDPMLAGVSEFELPEDPKWEFPRDKLTLGKPLGEGAFGQVVMAEAVGIDKDKPKEAVTVAVKMLKDDATEKDLSDLVSEMEMMKMIGKHKNIINLLGACTQDGPLYVIVAYASKGNLREYLRARRPPGMELSPDINRVPEEQMTFKDLVSCTYQLARGMEYLASQKCIHRDLAARNVLVTENNVMKIADFGLARDINNIDFFKETTNGRLPVKWMAPEALFDRVYTHQSDVWSFGVLMWEIFTLGGSPYPGIPVEELFKLLKEGHRMDKPANCTNELYMMMRDCWHAVPSQRPTFKQLVEDLDRILTLTTNEEYLDLSQPLEQ
modifications: phosphotyrosine at 769
In the case of B1, the “stoichiometry N” value was 1 FGFR2K^pY769 per cSH2.

Usually stoichiometry N stands for the number of molecules, sites or subunits per partner or assembly.
